# Where a chain is given by its changes, count along the chain named.
# T1: ETS1 (p51) (human, UniProt P14921 1-441)
# T1 sequence: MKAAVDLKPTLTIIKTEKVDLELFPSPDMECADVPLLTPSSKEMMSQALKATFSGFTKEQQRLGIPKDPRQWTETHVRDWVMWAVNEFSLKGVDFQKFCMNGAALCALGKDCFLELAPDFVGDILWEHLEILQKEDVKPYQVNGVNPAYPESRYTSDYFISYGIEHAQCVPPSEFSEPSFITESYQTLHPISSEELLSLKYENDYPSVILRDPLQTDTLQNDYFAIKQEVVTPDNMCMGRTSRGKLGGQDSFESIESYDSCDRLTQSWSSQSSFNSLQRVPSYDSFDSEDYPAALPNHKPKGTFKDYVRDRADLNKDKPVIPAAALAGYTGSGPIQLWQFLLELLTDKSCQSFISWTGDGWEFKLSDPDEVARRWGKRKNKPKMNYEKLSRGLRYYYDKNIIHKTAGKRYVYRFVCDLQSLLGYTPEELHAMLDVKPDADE
# B1: ETS consensus CCGGAAGT (dsDNA)
# DNA 1: GGCCAAGCCGGAAGTGTGTGGTAAACACTTT
# DNA 2: AAAGTGTTTACCACACACTTCCGGCTTGGCC
# B2: double variant CAGGATGT (dsDNA)
# DNA 1: B1 DNA 1 with C9A, A13T
# DNA 2: B1 DNA 2 with T19A, G23T
# B3: C to A variant CAGGAAGT (dsDNA)
# DNA 1: B1 DNA 1 with C9A
# DNA 2: B1 DNA 2 with G23T
# B4: A to T variant CCGGATGT (dsDNA)
# DNA 1: B1 DNA 1 with A13T
# DNA 2: B1 DNA 2 with T19A
# Experiments:
# Experiment in all cases: EMSA; Protein 3-fold dilutions with 1e-11 (M) 32P-dsDNA, 30 min on ice, 6% polyacrylamide gel; binding buffer as in earlier paper (not given); protein dialysis buffer 10 mM Tris pH 7.9, 0.5 mM EDTA, 50 mM KCl, 1 mM DTT, 10% glycerol
# Conditions in all cases: protein: recombinant; tags: N-terminal 6xHis (pET28a); label: 32P; (only one strand given)
# ELF1 [1] = target: T2, ELF1 (human, UniProt P32519 1-619)
# T2 sequence (P32519 whole entry): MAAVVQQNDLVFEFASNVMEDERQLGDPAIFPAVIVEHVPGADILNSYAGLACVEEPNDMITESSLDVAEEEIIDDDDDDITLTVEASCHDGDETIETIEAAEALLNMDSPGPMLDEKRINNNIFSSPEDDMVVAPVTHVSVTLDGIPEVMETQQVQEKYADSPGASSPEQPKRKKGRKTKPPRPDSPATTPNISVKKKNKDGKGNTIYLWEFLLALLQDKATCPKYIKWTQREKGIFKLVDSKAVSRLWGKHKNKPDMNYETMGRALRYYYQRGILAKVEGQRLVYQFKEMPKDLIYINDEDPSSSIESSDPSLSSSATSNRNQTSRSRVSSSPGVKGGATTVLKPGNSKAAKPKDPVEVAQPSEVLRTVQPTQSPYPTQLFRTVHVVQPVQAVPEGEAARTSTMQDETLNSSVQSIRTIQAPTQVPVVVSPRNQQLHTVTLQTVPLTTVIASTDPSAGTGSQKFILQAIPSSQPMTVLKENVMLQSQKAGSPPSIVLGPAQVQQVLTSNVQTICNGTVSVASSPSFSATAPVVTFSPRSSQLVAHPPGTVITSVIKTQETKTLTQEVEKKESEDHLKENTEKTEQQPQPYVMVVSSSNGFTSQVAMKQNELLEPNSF
# ETS1 (p51) [2] = target: T1, ETS1 (p51)
# ELF1 [3] = target: T2, ELF1; remark: listed apart in the source
# ETS1 (p51) [4] = target: T1, ETS1 (p51); remark: listed apart in the source
Binder,Kd (ELF1 [1]),Kd (ETS1 (p51) [2]),binding signal (ELF1 [3]),binding signal (ETS1 (p51) [4])
B1,0.17 nM,1.7 nM,–,–
B2,–,–,18.3 fold decrease in affinity vs N1,2.4 fold decrease in affinity vs N1
B3,–,–,1.9 fold decrease in affinity vs N1,1.5 fold decrease in affinity vs N1
B4,–,–,3.6 fold decrease in affinity vs N1,1 fold decrease in affinity vs N1

# From paper PMC2787013, “DNA Specificity Determinants Associate with Distinct Transcription Factor Functions”
